Data set [1] concerns the target T1, fibrinogen (Homo sapiens, UniProt P02675+P02679).
T1 sequence (P02679 27-437 isoform P02679-2 limits assumed): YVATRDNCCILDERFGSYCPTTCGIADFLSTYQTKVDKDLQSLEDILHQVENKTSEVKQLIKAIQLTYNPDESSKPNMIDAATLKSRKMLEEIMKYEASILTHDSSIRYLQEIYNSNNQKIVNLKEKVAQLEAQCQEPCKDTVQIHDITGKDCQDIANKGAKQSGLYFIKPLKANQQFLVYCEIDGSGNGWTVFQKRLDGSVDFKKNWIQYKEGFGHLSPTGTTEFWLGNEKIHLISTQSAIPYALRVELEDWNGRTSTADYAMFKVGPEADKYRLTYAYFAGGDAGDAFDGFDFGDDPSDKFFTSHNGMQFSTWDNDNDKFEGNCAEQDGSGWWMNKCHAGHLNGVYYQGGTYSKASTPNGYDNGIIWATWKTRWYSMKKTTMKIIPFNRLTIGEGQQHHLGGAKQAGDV
T1 sequence (P02675 31-491): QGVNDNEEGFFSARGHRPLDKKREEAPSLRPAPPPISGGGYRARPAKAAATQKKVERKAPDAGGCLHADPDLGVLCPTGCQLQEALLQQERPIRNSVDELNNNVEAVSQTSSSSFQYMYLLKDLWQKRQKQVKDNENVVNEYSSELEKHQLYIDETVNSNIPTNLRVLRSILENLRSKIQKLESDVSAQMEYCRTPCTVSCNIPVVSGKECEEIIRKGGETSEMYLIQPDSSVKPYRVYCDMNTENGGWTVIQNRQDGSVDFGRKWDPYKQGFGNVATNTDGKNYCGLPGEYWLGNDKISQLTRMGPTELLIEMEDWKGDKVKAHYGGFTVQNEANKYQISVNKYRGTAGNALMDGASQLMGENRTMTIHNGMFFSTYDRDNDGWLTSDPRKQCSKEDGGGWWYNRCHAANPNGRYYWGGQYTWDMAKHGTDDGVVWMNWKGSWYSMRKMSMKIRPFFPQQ
T1 sequence (P02671 20-629 partner limits assumed): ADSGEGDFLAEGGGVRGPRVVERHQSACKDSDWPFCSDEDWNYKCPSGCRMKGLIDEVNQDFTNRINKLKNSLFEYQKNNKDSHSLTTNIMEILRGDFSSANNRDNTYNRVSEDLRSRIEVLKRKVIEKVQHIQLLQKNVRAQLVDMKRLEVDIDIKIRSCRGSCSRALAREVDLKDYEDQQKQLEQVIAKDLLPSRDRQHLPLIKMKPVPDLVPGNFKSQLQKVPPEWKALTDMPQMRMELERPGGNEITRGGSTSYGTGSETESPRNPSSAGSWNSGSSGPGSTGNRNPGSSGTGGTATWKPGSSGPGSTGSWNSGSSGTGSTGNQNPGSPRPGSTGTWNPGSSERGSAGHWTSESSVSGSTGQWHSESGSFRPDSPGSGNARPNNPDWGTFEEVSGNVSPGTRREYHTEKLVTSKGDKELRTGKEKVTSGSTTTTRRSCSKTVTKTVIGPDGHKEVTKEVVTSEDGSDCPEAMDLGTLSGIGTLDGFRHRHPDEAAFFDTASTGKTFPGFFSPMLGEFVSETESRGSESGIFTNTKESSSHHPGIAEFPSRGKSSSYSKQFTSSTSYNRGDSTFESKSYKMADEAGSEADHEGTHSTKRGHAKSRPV
In words: ELISA specificity assay: soluble Gxxx tetrapeptides competing with immobilized GPRP-FnIII9-10-C. The format is binding. The note with it: tetrapeptide in 10^2- to 10^4-fold molar excess; one-hour pre-incubation. On the procedure: A modified ELISA technique was used to establish the affinity of fibrinogen for the various Gxxx-FnIII9-10-C (SEQ ID NO:20) proteins covalently immobilized on maleimide-activated plates via their C-terminal cysteines. Sulfhydryl-containing proteins/peptides were added to pre-blocked maleimide-activated 96-well plates (Pierce, Thermo Scientific, Rockford, Ill.) at 10 μg/mL in conjugation buffer (CB) comprising 150 mM NaCl, 100 mM phosphate, 10 mM EDTA, pH 7.2, with attachment occurring via maleimide-sulfhydryl (thioether) linkages. TCEP (1 mM) was added to maintain sulfhydryl groups in the reduced form. Following, unreacted maleimide groups were quenched with 20 μg/mL cysteine in CB. Human fibrinogen (25 μg/mL) was incubated with the substrates and unbound protein removed by washing. Bound fibrinogen was detected using HRP-conjugated goat anti-fibrinogen antibody (MP Biomedicals #55239) and 1-Step™ Ultra TMB-ELISA (Pierce). The TMB reaction was quenched with 1 M H2SO4 before measuring the Abs450 nm using the SPECTRAMAX® M2 (Molecular Devices, Sunnyvale, Calif.). All intervening wash steps were conducted using washing buffer (WB) comprising 150 mM NaCl, 100 mM phosphate, 0.05% Tween-20, pH 7.2; all binding steps were conducted using binding buffer (BB) comprising PBS+1% BSA. For basic affinity assays, the concentration of the fusion proteins was varied. For specificity assays, varying concentrations of Gxxx (SEQ ID NO:20) tetrapeptides (Genscript, Piscataway, N.J.) were added to the fibrinogen solution during incubation with the covalently immobilized proteins.
The tetrapeptides GPRV (SEQ ID NO:2) and GHRP (SEQ ID NO:3) are also known to bind fibrinogen via knob:pocket interactions, albeit with reduced affinities (Laudano A P, et al. Biochemistry 1980, 19(5):1013-1019).
On the technique in general: ELISA stands for enzyme-linked immunosorbent assay.

A further data set concerns the target fibrin (Homo sapiens, UniProt P02675+P02679). As to conditions: cited from earlier work.
Data set [2] deals with T2, fibrinogen (Homo sapiens, UniProt P02675+P02679).
T2 sequence (P02679 27-433 limits assumed): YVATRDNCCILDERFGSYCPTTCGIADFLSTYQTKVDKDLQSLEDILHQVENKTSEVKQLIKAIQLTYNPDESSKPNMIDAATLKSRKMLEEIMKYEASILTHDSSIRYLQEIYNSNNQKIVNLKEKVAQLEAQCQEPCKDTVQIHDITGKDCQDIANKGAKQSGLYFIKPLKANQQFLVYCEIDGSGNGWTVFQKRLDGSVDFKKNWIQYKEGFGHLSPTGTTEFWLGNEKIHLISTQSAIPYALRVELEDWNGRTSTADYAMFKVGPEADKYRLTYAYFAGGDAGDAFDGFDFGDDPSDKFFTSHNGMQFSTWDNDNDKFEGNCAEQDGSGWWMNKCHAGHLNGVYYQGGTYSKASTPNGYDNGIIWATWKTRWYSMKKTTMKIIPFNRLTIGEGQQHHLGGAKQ
T2 sequence (P02675 31-491): T1 sequence (P02675 31-491)
T2 sequence (P02671 20-629 partner limits assumed): T1 sequence (P02671 20-629 partner limits assumed)
In words: Turbidity and percent clottability with PEGylated knob peptides. The format is biochemical. As to conditions: 1:1 molar ratio; for percentage of clottable protein: no-peptide ˜95%. How it is done: Polymerization rate (turbidity curves), percent clottable protein, fiber structure (SEM), and viscoelastic properties of fibrin polymerized in the presence or absence of PEGylated-GPRPFPAC (5 kDa linear PEG chain, SED ID NO:53) at a 1:1 molar ratio were evaluated.
The turbidity curves upon initiating thrombin-activated polymerization and the amount of soluble protein remaining in the clot liquor after polymerization (percent clottable protein) were evaluated. All assays were performed with 1 mg/ml fibrinogen, 1 U/ml thrombin, 1 U/mL factor XIIIa, and 5 mM CaCl2; all PEG conjugates were tested at a 1:1 molar ratio.

These results are taken from US8513380B2, “Peptides for binding fibrinogen and fibrin” (Georgia Tech Research Corporation, priority 2009, dated 2013).

Where no end group is shown, it is not given here. Where only a bound is given, the exact number is not on record here.

On to GPRP, for which the “competition with immobilized GPRP-FnIII9-10-C for binding to fibrinogen” value at fibrinogen [1] is “dose-dependent inhibition of fibrinogen binding”. Also, the “excess necessary to completely inhibit fibrin assembly” value on fibrin is given as ≥ 100 -fold excess.

As for “GPRPFPAC-PEG: GPRPFPAC conjugated to 5 kDa linear PEG chain (also: conjugated to 5 kDa linear PEG, site not given here; listed as Homo sapiens)”, in the data set with fibrinogen [2] (1 mg/ml fibrinogen, 1 U/ml thrombin, 1 U/mL factor XIIIa), the “maximum absorbance turbidity value” is given as “lower maximum absorbance turbidity value”. Besides, the “percentage of clottable protein” value with fibrinogen [2] was 92%.

Consider “GPSPFPAC-PEG: control peptide conjugate, GPSPFPAC (SEQ ID NO:18) with PEG (also: PEG conjugate, site not given here; listed as Homo sapiens) [reference compound]”, for which the “percentage of clottable protein” value with fibrinogen [2] was “did not change”.
